Common to all, as to settings: tags: NLS, 6xHis
The target of data set [1] is T1, ZM6.3(H2) (artificial).
T1 chain: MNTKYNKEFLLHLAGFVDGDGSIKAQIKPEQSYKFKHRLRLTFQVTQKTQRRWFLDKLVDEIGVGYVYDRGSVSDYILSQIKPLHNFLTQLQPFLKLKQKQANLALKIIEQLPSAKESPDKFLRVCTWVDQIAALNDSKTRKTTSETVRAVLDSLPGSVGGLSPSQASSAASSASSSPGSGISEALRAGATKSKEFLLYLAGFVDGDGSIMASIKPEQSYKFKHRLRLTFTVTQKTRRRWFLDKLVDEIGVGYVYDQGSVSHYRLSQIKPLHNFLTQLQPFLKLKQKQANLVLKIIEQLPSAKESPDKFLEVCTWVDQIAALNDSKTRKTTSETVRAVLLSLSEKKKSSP
Kind of data set: cell_activity; yeast 37 C; 28 C: 2. As for the experimental part:
(§1) A 3 mL culture of selective media (MP Biomedical) was inoculated with a single colony of the yeast screening strain and grown at 30° C. overnight. On the following day, a 50 ml YPD culture (MP Biomedical) was started with 2 ml of the overnight culture and grown at 30° C. overnight. On the following day, the cells were harvested by centrifugation at 4000 rpm. The cells were resuspended in 100 ml ice cold water and centrifuged again. The cells were then washed in 1.2 M sorbitol, followed by treatment with 2 ml of 10 mM Tris pH 8.0, 1 mM EDTA, 100 mM Lithium acetate, 10 mM DTT, 0.6M sorbitol for 30 minutes at 30° C. with shaking. The cells were recovered by centrifugation, washed in 40 ml 1.2M sorbitol and finally resuspended in 250 microliters of 1.2M sorbitol. 50 microliter aliquots were transferred to test tubes on ice. Up to 5 microliters of DNA (100-500 nanograms) were added. The suspension was transferred to a 0.2 cm electroporation cuvette, on ice. Electroporation was performed with a pulse charge at 1.5 kV, 200 ohms, 25 microF (pulse time of 5 milliseconds). 1 mL YPD media (MP Biomedical) was added and the cells were allowed to recover at 30° C. for 1-2 hr. The cells were centrifuged, resuspended in 100 uL 1M sorbitol and plated on selective media lacking leucine and containing 2% galactose. The resulting yeast colonies were incubated at various temperatures ranging from 22 to 37 degrees Celsius for 7-10 days. I-CreI and meganucleases derived from it have maximal activity at or above 37 degrees Celsius. Screening was performed at a range of temperatures from 22 to 37 degrees in order to observe increases in activity at lower temperatures which are relevant to certain biological systems (eg. plant cells, plant cell cultures, etc). At that time the red/white sectoring phenotype, indicative of meganuclease activity was observed. Colonies with increased white sectoring over the parental meganuclease (indicating colonies expressing a meganuclease with increased meganuclease activity), also referred to as “hits” and sometimes completely white, were isolated for further analysis.
A total of 15 Zm6.3 variants with increased activity were confirmed in the yeast system (as described in Example 6). Increased activity was observed across a range of temperatures: 28 degrees Celsius, 30 degrees Celsius and 37 degrees Celsius, as shown in Table 15.

In data set [2] the target is T2, MHP14(L14-03) (artificial).
T2 chain: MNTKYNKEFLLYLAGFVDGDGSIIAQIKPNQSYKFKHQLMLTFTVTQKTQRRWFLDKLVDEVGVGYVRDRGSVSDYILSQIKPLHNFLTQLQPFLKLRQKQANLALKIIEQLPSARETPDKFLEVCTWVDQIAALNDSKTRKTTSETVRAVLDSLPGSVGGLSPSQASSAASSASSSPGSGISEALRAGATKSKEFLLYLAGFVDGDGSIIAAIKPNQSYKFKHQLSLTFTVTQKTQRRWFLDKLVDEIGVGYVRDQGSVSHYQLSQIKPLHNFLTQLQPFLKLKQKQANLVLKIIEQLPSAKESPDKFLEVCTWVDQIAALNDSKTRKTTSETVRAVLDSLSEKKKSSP
Put plainly: cell_activity; yeast 37 C; 28 C: 0. As for the experimental part: as §1
(§2) A total of 15 MHP14 variants with increased activity were confirmed in the yeast system (as described in Example 6). Increased activity was observed across a range of temperatures: 28 degrees Celsius, 34 degrees Celsius and 37 degrees Celsius, as shown in Table 11.

The target of data set [3] is T3, MHP14(L14-04) (artificial).
T3 chain: T2 chain with Q31R, V62I, R98K, A105V, R116K, T118S
Put plainly: cell_activity; yeast 37 C; 28 C: 0. As for the experimental part: as §1, §2

Data set [4] has as its target T4, MHP14(06) (artificial).
T4 chain: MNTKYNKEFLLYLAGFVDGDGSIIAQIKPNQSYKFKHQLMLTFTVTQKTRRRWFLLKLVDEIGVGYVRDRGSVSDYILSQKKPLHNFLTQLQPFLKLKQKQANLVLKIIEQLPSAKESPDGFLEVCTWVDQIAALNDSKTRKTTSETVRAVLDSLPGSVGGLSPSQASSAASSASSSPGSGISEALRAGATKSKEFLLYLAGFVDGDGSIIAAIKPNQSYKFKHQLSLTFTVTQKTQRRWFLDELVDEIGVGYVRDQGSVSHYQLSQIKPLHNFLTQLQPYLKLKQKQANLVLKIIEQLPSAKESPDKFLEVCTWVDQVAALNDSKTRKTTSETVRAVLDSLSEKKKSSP
Kind of data set: cell_activity; yeast 37 C; 28 C: 0. As for the experimental part:
as §1, §2

The target in data set [5] is T5, MHP14(01) (artificial).
T5 chain: T4 chain with G19S, S22C, R50Q, N103V, I132V, E244K, K308G
Kind of data set: cell_activity; yeast 37 C; 28 C: 0. As for the experimental part:
as §1, §2

Numbering of substitutions follows the chain as printed.

B1: ZM6.3 recognition site (dsDNA)
DNA 1: CAGGCTCTCGTAAATGCGCCTG
DNA 2: CAGGCGCATTTACGAGAGCCTG
In data set [1], B1 returned an activity of 4 score 0-4.

B2: MHP14 recognition site (dsDNA)
DNA 1: CAAACAGATTCACGTCAGATTT
DNA 2: AAATCTGACGTGAATCTGTTTG
Take B2: the activity is 3 score 0-4 in data set [2], 3 score 0-4 in data set [3], 3.5 score 0-4 in data set [4] and 3 score 0-4 in data set [5].

The values are drawn from patent US20140223606, “COMPOSITIONS AND METHODS COMPRISING SEQUENCES HAVING MEGANUCLEASE ACTIVITY” (PIONEER HI BRED INTERNATIONAL INC, published 2014).
